Measurements from US11906524B2, “Urea biosensors and uses thereof” (Duke University, priority 2015, dated 2024).
Residue numbers refer to the chain shown, from its start. Names and notes keep the numbering of the source.

How the values were obtained:
[1] = Urea titration of emission intensity spectra (Nanodrop3300) with ratiometric analysis, singly labeled conjugates; format: binding
From the text: Determination of emission intensity spectra.
(§1) Ratiometric analysis of urea binding. […] 2
(§2) For a single urea-binding site, the fractional saturation is given by
(§3) [formula] where [L] is the ligand (urea) concentration and Kd the dissociation constant, ^trueKd for ytrue.
[formula] where ^appIλ2 and ^satIλ2 are the emission intensities of the monochromatic signal at wavelength λ2 of the ligand-free and ligand-bound protein, respectively.

[2] = Temperature- and urea-dependent fluorescence landscapes of fluorescent conjugates (Roche LightCycler); format: binding; parameters: key: y, yes; n, no; settings: fluorescent response to urea
Protocol: We constructed 20 single cysteine mutants in csUBP7, exploring 7 endosteric, 12 peristeric, and 1 allosteric position (FIG. 9). At each position we attached the Prodan-derived fluorophores Acrylodan and Badan, which differ by one methylene group in their thiol-reactive linker. The fluorescent responses of these conjugates was determined initially as a function of urea concentration and temperature (FIG. 10). […] The ligand dependence of the emission spectra shapes was determined for these conjugates (Table 8).
Determination of temperature- and ligand-dependent fluorescence landscapes. […] Urea concentrations were varied from 0-4.8 M in 20 mM KCl, 20 mM MOPS (pH 7.4). […] Temperatures were advanced in 1K steps.
as §1, §2, §3
To obtain the temperature dependence of the binding reaction, the Kd values of all the individually determined isotherms were fit the Gibbs-Hemholtz equation (Layton and Hellinga, 2010, Biochemistry, 49, 10831-41):
[formula] where ΔGb^•(T) is the standard free energy of binding at 1 M ligand at temperature T,
[formula] Δ^refHb^• and Δ^refSb^• the molar enthalpy and entropy of binding, respectively, at the reference temperature, Tref, and ΔCp,b the heat capacity of the binding reaction.

[3] = mutation in the csUBP7 186C·Acrylodan conjugate

For Texas Red, the “trueKd (urea)” value ([1]; fluorophore conjugated to csUBP7 186C, Q114A, fit of equation 1 to the monochromatic emission intensities, Nanodrop3300) was “n/b”.

In the case of Oregon Green, the monochromatic intensity change ([1]; fluorophore conjugated to csUBP7 186C variant with Q114A, increase on urea) is reported as ~2 fold and the Kd ([1]; fluorophore conjugated to csUBP7 186C, Q114A, fit of equation 1 to the monochromatic emission intensities, Nanodrop3300, read-out: trueKd (urea)) is reported as 300 µM.

B1: N211A: csUBP7 186C, 211A mutant (SEQ ID NO: 82), tested as Acrylodan conjugate (conjugate)
chain: MSSSESEKEKSEETIKVGILHSLSGTMSISEVSLKDAELMAIEEINNNGGVLGKKLEPIVEDGASDWPTFAEKAKKLLQKDKVAVIFGAWTSASRKAVLPVVEENNGLLFYPVQYEGLESSPNIFYMGAAPNQQIVPAVKWLFDNGKKRFYLLGSDYVFPRTANKIIKAYLKYLGGVVVGEEYTPCGHTDYSSVINKIKAAKPDVVFNTLAGDSNVAFFKQLKDAGIDANTLPVMSVSIAEEEIKGIGPEYLKGHLVTWNYFQSVDTPENKEFVEKYKKKYGEDRVTDDPIEAAYIGVYLWAKAVEKAGSTDVDKVREAAKGIEFNAPEGPVKIDGDNQHLYKTVRIGEILENGQIRELWKTNKPVKPDPYLKGYEWAQGLSEQGGSHHHHHH
modifications: Acrylodan conjugate; csUBP7_186C.28 (186C, 211A substitution mutant, signal peptide replaced with M and a GGSHHHHHH at C-terminus, and also comprising a C89A substitution)
For B1, the “effect of mutation on urea affinity” value [1, 3] was “nearly abolishes binding”.

B2: csUBP7 S92C: csUBP7 92C cysteine mutant (SEQ ID NO: 30), tested as Acrylodan and Badan conjugates (conjugate)
chain: B1 chain with S92C, C186L, A211N
modifications: Acrylodan or Badan conjugate; csUBP7_92C (92C substitution mutant with signal peptide replaced with M and a GGSHHHHHH at C-terminus, and also comprising a C89A substitution)
With B2 the Response ([2]; Acrylodan conjugate) was “n” and the Response ([2]; Badan conjugate) was “n”.

B3: csUBP7 A93C: csUBP7 93C cysteine mutant (SEQ ID NO: 31), tested as Acrylodan and Badan conjugates (conjugate)
chain: B1 chain with A93C, C186L, A211N
modifications: Acrylodan or Badan conjugate; csUBP7_93C (93C substitution mutant with signal peptide replaced with M and a GGSHHHHHH at C-terminus, and also comprising a C89A substitution)
In the case of B3, the Response ([2]; Acrylodan conjugate) is reported as “y” and the Response ([2]; Badan conjugate) is reported as “n”.

B4: V113A: csUBP7 186C, 113A mutant (SEQ ID NO: 69), tested as Acrylodan conjugate (conjugate)
chain: B1 chain with V113A, A211N
modifications: Acrylodan conjugate; csUBP7_186C.15 (186C, 113A substitution mutant, signal peptide replaced with M and a GGSHHHHHH at C-terminus, and also comprising a C89A substitution)
In the case of B4, the “effect of mutation on urea affinity” value [1, 3] is reported as “weakens binding significantly”.

B5: csUBP7 S65C: csUBP7 65C cysteine mutant (SEQ ID NO: 26), tested as Acrylodan and Badan conjugates (conjugate)
chain: B1 chain with S65C, C186L, A211N
modifications: Acrylodan or Badan conjugate; csUBP7_65C (65C substitution mutant with signal peptide replaced with M and a GGSHHHHHH at C-terminus, and also comprising a C89A substitution)
For B5, the Response ([2]; Acrylodan conjugate) was “n” and the Response ([2]; Badan conjugate) was “y”.

B6: csUBP7 Y111C: csUBP7 111C cysteine mutant (SEQ ID NO: 33), tested as Acrylodan and Badan conjugates (conjugate)
chain: B1 chain with Y111C, C186L, A211N
modifications: Acrylodan or Badan conjugate; csUBP7_111C (111C substitution mutant with signal peptide replaced with M and a GGSHHHHHH at C-terminus, and also comprising a C89A substitution)
For B6, the Response ([2]; Acrylodan conjugate) was “n” and the Response ([2]; Badan conjugate) was “n”.

B7: V113Q: csUBP7 186C, 113Q mutant (SEQ ID NO: 72), tested as Acrylodan conjugate (conjugate)
chain: B1 chain with V113Q, A211N
modifications: Acrylodan conjugate; csUBP7_186C.18 (186C, 113Q substitution mutant, signal peptide replaced with M and a GGSHHHHHH at C-terminus, and also comprising a C89A substitution)
With B7 the “fold stronger affinity than either V113N or V113H” value [1, 3] was 10 fold.

B8: csUBP7 Q114C: csUBP7 114C cysteine mutant (SEQ ID NO: 34), tested as Acrylodan and Badan conjugates (conjugate)
chain: B1 chain with Q114C, C186L, A211N
modifications: Acrylodan or Badan conjugate; csUBP7_114C (114C substitution mutant with signal peptide replaced with M and a GGSHHHHHH at C-terminus, and also comprising a C89A substitution)
In the case of B8, the Response ([2]; Acrylodan conjugate) is reported as “n” and the Response ([2]; Badan conjugate) is reported as “n”.

B9: Q114E: csUBP7 186C, 114E mutant (SEQ ID NO: 76), tested as Acrylodan conjugate (conjugate)
chain: B1 chain with Q114E, A211N
modifications: Acrylodan conjugate; csUBP7_186C.22 (186C, 114E substitution mutant, signal peptide replaced with M and a GGSHHHHHH at C-terminus, and also comprising a C89A substitution)
For B9, the “effect of mutation on urea affinity” value [1, 3] was “improves binding by an order of magnitude”.

B10: S92A: csUBP7 186C, S92A mutant (SEQ ID NO: 65), tested as Acrylodan conjugate (conjugate)
chain: B1 chain with S92A, A211N
modifications: Acrylodan conjugate; csUBP7_186C.11 (186C, S92A substitution mutant, signal peptide replaced with M and a GGSHHHHHH at C-terminus, and also comprising a C89A substitution)
In the case of B10, the “effect of mutation on urea affinity” value [1, 3] is reported as “abolishes binding”.

B11: csUBP7 Y115C: csUBP7 115C cysteine mutant (SEQ ID NO: 35), tested as Acrylodan and Badan conjugates (conjugate)
chain: B1 chain with Y115C, C186L, A211N
modifications: Acrylodan or Badan conjugate; csUBP7_115C (115C substitution mutant with signal peptide replaced with M and a GGSHHHHHH at C-terminus, and also comprising a C89A substitution)
With B11 the Response ([2]; Acrylodan conjugate) was “n” and the Response ([2]; Badan conjugate) was “n”.

B12: N211E: csUBP7 186C, 211E mutant (SEQ ID NO: 86), tested as Acrylodan conjugate (conjugate)
chain: B1 chain with A211E
modifications: Acrylodan conjugate; csUBP7_186C.32 (186C, 211E substitution mutant, signal peptide replaced with M and a GGSHHHHHH at C-terminus, and also comprising a C89A substitution)
In the case of B12, the “effect of mutation on urea affinity” value [1, 3] is reported as “weakens affinity”.

B13: V113T: csUBP7 186C, 113T mutant (SEQ ID NO: 70), tested as Acrylodan conjugate (conjugate)
chain: B1 chain with V113T, A211N
modifications: Acrylodan conjugate; csUBP7_186C.16 (186C, 113T substitution mutant, signal peptide replaced with M and a GGSHHHHHH at C-terminus, and also comprising a C89A substitution)
With B13 the “effect of mutation on urea affinity” value [1, 3] was “only a small effect”.
